From US20170369592A1, “NOVEL ANTI-FIBROBLAST ACTIVATION PROTEIN (FAP) ANTIBODIES AND USES DERIVED THEREOF” (Mabimmune Diagnostics AG, priority 2015, published 2017)

Key:
[1] = biological target: T1, rhFAP (Homo sapiens, UniProt Q12884); test: Mechanism of inhibition of rhuFAP-mediated PEP (Z-Gly-Pro-AMC) cleavage; format: biochemical; conditions: 0, 10, 100, 1000 nM antibody, 20-100 μM Z-Gly-Pro-AMC, Lineweaver-Burk plot
T1 construct: purchased Sino Biologicals 10464-H07H
T1 sequence (Q12884 26-760 limits assumed): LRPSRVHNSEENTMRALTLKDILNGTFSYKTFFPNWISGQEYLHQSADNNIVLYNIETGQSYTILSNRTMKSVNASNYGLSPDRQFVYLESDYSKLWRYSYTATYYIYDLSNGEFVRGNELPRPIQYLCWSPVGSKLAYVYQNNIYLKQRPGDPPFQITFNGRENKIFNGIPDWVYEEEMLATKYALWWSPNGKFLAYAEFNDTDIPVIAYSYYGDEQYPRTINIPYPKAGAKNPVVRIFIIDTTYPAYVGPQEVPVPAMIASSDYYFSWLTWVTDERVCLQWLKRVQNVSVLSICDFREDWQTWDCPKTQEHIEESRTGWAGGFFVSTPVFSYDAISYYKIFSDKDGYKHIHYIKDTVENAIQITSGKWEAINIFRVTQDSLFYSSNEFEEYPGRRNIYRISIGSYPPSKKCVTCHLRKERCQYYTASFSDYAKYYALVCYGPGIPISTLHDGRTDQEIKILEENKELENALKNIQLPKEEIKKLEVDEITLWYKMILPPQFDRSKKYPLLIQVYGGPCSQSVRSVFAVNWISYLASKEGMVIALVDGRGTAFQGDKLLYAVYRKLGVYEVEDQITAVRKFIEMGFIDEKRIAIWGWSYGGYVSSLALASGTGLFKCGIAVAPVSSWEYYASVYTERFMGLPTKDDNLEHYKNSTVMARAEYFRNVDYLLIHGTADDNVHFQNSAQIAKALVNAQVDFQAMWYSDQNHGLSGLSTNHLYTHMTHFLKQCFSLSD
Description: A black flat bottom standard 96-well ELISA plate was blocked for 1 hr at 37° C. using sterile blocking buffer: 5% bovine serum albumin (BSA) in phosphate buffered saline (PBS). 10 μL of recombinant human FAP solution: 0.4 nM recombinant human FAP (Sino Biologicals, 10464-H07H), in 225 mM Sodium phosphate buffer, pH 7.4) was added to each well. Then, 80 μL of NI-206.82C2 at the indicated concentrations in PBS were added to the wells incubated for 1 hr at 37° C. Then, 10 μL of fluorogenic substrate solution (Z-Gly-Pro-AMC in 40% methanol and 60% 25 […]) was added to each well. The fluorescence intensity was measured at 360 nm excitation and 460 nm emission every 3 min over a total reading time of 2 hr.

[2] = biological target: T2, recombinant human FAP (rhFAP) (Homo sapiens, UniProt Q12884); test: Affinity (EC50) sandwich ELISA on SB9 oligopeptidase family; format: binding; conditions: HRP-labelled antibody 0.004-400 nM
T2 construct: purchased Sino Biologicals 10464-H07H
T2 sequence (Q12884 26-760 limits assumed): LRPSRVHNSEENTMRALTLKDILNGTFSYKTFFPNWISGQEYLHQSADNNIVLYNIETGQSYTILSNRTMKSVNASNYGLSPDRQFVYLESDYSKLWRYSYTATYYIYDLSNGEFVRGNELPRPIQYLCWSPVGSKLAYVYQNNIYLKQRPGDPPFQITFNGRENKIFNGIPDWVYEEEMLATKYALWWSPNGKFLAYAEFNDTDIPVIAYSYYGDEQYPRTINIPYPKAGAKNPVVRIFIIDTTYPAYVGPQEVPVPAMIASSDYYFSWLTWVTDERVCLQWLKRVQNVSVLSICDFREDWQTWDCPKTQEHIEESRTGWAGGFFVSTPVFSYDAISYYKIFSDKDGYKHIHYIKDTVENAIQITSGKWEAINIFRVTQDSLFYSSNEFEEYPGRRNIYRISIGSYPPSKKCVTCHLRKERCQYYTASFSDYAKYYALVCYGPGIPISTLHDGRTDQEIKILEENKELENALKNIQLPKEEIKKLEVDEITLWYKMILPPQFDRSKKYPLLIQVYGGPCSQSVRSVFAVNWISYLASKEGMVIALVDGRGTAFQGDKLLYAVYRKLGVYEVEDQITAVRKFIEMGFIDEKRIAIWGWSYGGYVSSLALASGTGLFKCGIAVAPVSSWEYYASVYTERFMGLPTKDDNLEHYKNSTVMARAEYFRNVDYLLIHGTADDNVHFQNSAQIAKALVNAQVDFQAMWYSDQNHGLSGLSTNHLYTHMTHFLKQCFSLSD
Description: To determine the binding efficiency and inhibitory ability of NI-206.82C2 against other members of the SB9 oligopeptidase family that have sequence similarity to FAP, indirect ELISA and inhibition assays were performed on active enzyme targets. Active recombinant human enzymes evaluated in this assay include: Fibroblast Activation Protein (FAP; Sino Biologicals, 10464-H07H), Dipeptidyl Peptidase IV (DPPIV, BPS Bioscience 80040), Dipeptidyl Peptidase 8 (DPP8, BPS Bioscience 80080), Dipeptidyl Peptidase 9 (DPP9, BPS Bioscience […]), and Prolyl Oligopeptidase/Prolyl Endopeptidase (POP/PREP, BPS Bioscience 80105). Each recombinant peptidase was expressed with a purification tag, and attached to the 96 well ELISA plate using either a mouse anti-Histidine antibody (CloneTech), or a mouse anti-Glutathione S-transferase (GST, Sino Biologicals, 111213-MM02) tag antibody. Each enzyme was validated to bind and remained active on the ELISA plate using enzyme specific fluorogenic substrates. H-Gly-Pro-AMC (ATT Bioquest, 13450) was used to validate the presence and activity of DPP4, DPP9, and DPP8. […] Following a washing step, bound antibody was detected using 3,3′,5,5′-Tetramethylbenzidine (TMB) substrate. The reaction was stopped after 10 minutes by adding 2N H2SO4 and the resulting change in optical density was quantified using an ELISA plate reader at […] absorbance (FIG. 7 B).

[3] = biological target: T1, rhFAP; test: Inhibition assay on SB9 oligopeptidase family (DQ-gelatin); format: biochemical; conditions: antibody up to 1000 nM, enzyme 0.2 nM
Description: To determine the inhibitory ability of the antibody a black 96 well plate was blocked for 1 h with blocking buffer. NI-206.82C2 was pipetted at concentrations of 1000, 50, 10, 3.03, 1.01, 0.031, 0.001, and 0 nM in PBS into the according wells. The enzymes were added at a concentration of 0.2 nM. Finally, fluorgenic substrates were then added to the well at a concentration equal to the Michaelis constant (Km) and the velocity of the substrate cleavage was quantified by fluorescence at 360 nm excitation and 460 nm emission. H-Gly-Pro-AMC (AAT Bioquest, 13450) was used for DPP4, DPP9, and DPP8. Z-Gly-Pro-AMC (BaChem, I1145) was used to evaluate the activity of POP/PREP. FAP activity was assessed using DQ-gelatin (Life Technologies, D12054) and cleavage quantified at 495 nm excitation and 515 nm emission.

B1: NI-206.82C2: recombinant human memory B cell-derived monoclonal anti-FAP IgG1 antibody, variable regions in FIG. 1A, FAP inhibitory (antibody, V domains shown)
VH: QVQLQQSGPGLVKPSQTLSLTCAISGDSVSSNSVTWNWIRQSPSRGLEWLGRTYYRSKWYNDYAVSVKGRITINPDTSKNQFYLQLKSVTPEDAAVYYCARDSSILYGDYWGQGTLVTVSS
VL: QAVLTQPSSLSASPGASASLTCTLPSGINVGTYRIFWFQQKPGSPPQYLLSYKSDSDNHQGSGVPSRFSGSKDASANAGILLISGLQSEDEADYYCMIWHSSAWVFGGGTKLTVL
mechanism of inhibition of FAP-mediated PEP cleavage [1]: non-competitive inhibitor
binding to rhFAP [2]: selectively binds
inhibition of rhFAP [3]: selectively inhibits
